# From US12281340B2, “Method of producing N-acyl-amino group-containing compound” (AJINOMOTO CO., INC., priority 2018, dated 2025)
# How the values were obtained:
# Assay type in all cases: biochemical
# [1] = Synthesis of N-caprinoyl-amino acid derivative, N-caprinoyl-D-amino acid and N-caprinoyl-peptide using purified acylamino acid synthetase, UPLC-MS detection; parameters: key: +: Detected; −: Not detected; settings: +ATP
# Summary of the method: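 Purified enzyme (50 μg/mL) was incubated with 5 mM sodium caprate, 5 mM amino acid derivative, D-amino acid or peptide, 10 mM ATP, 10 mM MgCl2 and 1 mM DTT in 50 mM Tris-HCl, pH 8.0, for 24 h at 25 °C. After acidic methanol stop, UPLC-MS looked for the mass of the N-caprinoyl product.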
# [2] = Synthesis of N-lauroylamino acid / N-lauroylamino acid derivative using purified acylamino acid synthetase, UPLC-MS detection; parameters: key: +: Detected; −: Not detected; settings: +ATP
# Description: 0.2 mL of a reaction solution containing 50 mM Tris-HCl, 5 mM amino acid or D-amino acid derivative, 5 mM sodium laurate, 10 mM ATP, 10 mM MgCl2, 1 mM DTT, 200 μg/mL of the purified enzyme, pH 8.0 was incubated at 25° C. for 24 hours. After completion of the reaction, 0.8 mL of the reaction stop solution (1% (v/v) phosphoric acid, 75% (v/v) methanol) was added, and the mixture was filtrated through the filter followed by being subjected to the UPLC-MS analysis to detect a signal of a molecular weight corresponding to an N-lauroyl-amino acid or an N-lauroyl-amino acid derivative. The condition for the UPLC-MS analysis is as described in Example 2.
# As a result of the UPLC-MS analysis, the signal of the molecular weight corresponding to the N-lauroyl-amino acid or the N-lauroyl-amino acid derivative was confirmed in the reaction solution containing the enzyme in combination with the amino acid or the amino acid derivative shown in Table 5 below.
# [3] = Quantification of produced N-acylamino acid (UV 210 nm) using purified acylamino acid synthetase; settings: 5 mM L-Asp, 5 mM sodium fatty acid, 200 μg/mL enzyme, 25° C., 24 hours
# Description: 0.1 mL of a reaction solution containing 50 mM Tris-HCl, 5 mM amino acid, 5 mM sodium fatty acid, 10 mM ATP, 10 mM MgCl2, 1 mM DTT, 200 μg/mL of the purified enzyme, pH 8.0 was incubated at 25° C. for 24 hours. As amino acids, L-Asp was used in AtGH3-6, OsGH3-8, AtGH3-5, AtGH3-12, and Gly or L-Ala was used in CfHP. After completion of the reaction, 0.4 mL of the reaction stop solution (1% (v/v) phosphoric acid, 75% (v/v) methanol) was added, and the mixture was filtrated through the filter followed by being subjected to the UPLC-MS analysis to quantify the produced N-acylamino acid by detection at UV 210 nm. The condition for the UPLC-MS analysis is as descried in Example 2. As a result of the analysis, 3.9 mM of Nα-capryloyl-L-aspartic acid, 4.5 mM of Nα-caprinoyl-L-aspartic acid and 2.2 mM of Nα-lauroyl-L-aspartic acid were detected when AtGH3-6 was used; 4.3 mM of Nα-capryloyl-L-aspartic acid, 4.6 mM of Nα-caprinoyl-L-aspartic acid and 3.5 mM of Nα-lauroyl-L-aspartic acid were detected when OsGH3-8 was used; 4.1 mM of Nα-capryloyl-L-aspartic acid, 4.6 mM of Nα-caprinoyl-L-aspartic acid and 2.5 mM of Nα-lauroyl-L-aspartic acid were detected when AtGH3-5 was used; 1.6 mM of Nα-capryloyl-L-aspartic acid, 0.6 mM of Nα-caprinoyl-L-aspartic acid and 0.2 mM of Nα-lauroyl-L-aspartic acid were detected when AtGH3-12 was used; 4.5 mM of Nα-capryloylglycine, 4.6 mM of Nα-caprinoylglycine, 0.1 mM of Nα-lauroylglycine, 3.1 mM of Nα-capryloyl-L-alanine, 3.6 mM of Nα-caprinoyl-L-alanine and 0.4 mM of Nα-lauroyl-L-alanine were detected when CfHP was used.
# [4] = Synthesis of N-acylamino acids from various fatty acids using purified acylamino acid synthetase, UPLC-MS detection; parameters: key: +: Detected; −: Not detected
# Summary of the method: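 Purified enzyme (200 μg/mL) with 5 mM amino acid, 5 mM sodium fatty acid (3 mM palmitate or stearate, plus 10% methanol), 10 mM ATP, 10 mM MgCl2, 1 mM DTT in 50 mM Tris-HCl pH 8.0, shaken 24 h at 25 °C. Amino acid varied by enzyme; product mass detected by UPLC-MS (ESI-negative).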
# [5] = substrates Carnosine and sodium caprate
# [6] = substrates D-Ala and sodium caprate
# [7] = substrates D-Asp and sodium caprate
# [8] = substrates D-Cys and sodium caprate
# [9] = substrates D-Glu and sodium caprate
# [10] = substrates D-Ile and sodium caprate
# [11] = substrates D-Lys and sodium caprate
# [12] = substrates L-Asp-L-Phe and sodium caprate
# [13] = substrates L-Gly-L-Gly and sodium caprate
# [14] = substrates Sarcosine and sodium caprate
# [15] = substrates Taurine and sodium caprate
# [16] = substrates Gly and sodium laurate
# [17] = substrates L-Ala and sodium laurate
# [18] = substrates L-Arg and sodium laurate
# [19] = substrates L-Asp and sodium laurate
# [20] = substrates L-Glu and sodium laurate
# [21] = substrates L-Lys and sodium laurate
# [22] = substrates L-Thr and sodium laurate
# [23] = substrates β-Ala and sodium laurate
# [24] = substrates L-Asp and Capric acid
# [25] = substrates L-Asp and Caproic acid
# [26] = substrates L-Asp and Caprylic acid
# [27] = substrates L-Asp and Lauric acid
# [28] = substrates L-Asp and Linoleic acid
# [29] = substrates L-Asp and Palmitic acid
# [30] = substrates L-Asp and myristic acid
molecule,measurement,setting,value
"OsGH3-8: probable indole-3-acetic acid-amido synthetase GH3.8 from Oryza sativa, expressed in E. coli with N-terminal His-tag (protein, listed as Oryza sativa, N-terminal His-tag, probable indole-3-acetic acid-amido synthetase GH3.8 from Oryza sativa, expressed in E. coli with N-terminal His-tag) MAVMTDVSTTGTALRTPAAGAVKEGDVEKLRFIDEMTTNVDAVQERVLGEILGRNAGTEYLTKCGLDGATDRAAFRAKVPVVSYDDLQPYIQRIANGDRSPILSTHPVSEFLTSSGTSAGERKLMPTIMDELDRRQLLYSLLMPVMNLYVPGLDKGKGLYFLFVKSETKTPGGLTARPVLTSYYKSDHFKNRPYDPYHNYTSPTAAILCADAFQSMYAQMVCGLCQRNDVLRLGAVFASGLLRAIRFLQLNWEQLADDIESGELTPRVTDPSVREAVAAILLPDPELAKLIRAECSKGDWAGIITRVWPNTKYLDVIVTGAMAQYIPTLEFYSGGLPMACTMYASSECYFGLNLRPMCDPSEVSYTIMPNMGYFEFLPVDETGAASGDATQLVDLARVEVGREYELVITTYAGLNRYRVGDVLRVTGFHNAAPQFRFVRRKNVLLSIESDKTDEAELQRAVERASALLRPHGASVVEYTSQACTKRIPGHYVIYWELLTKGAGATVVDADTLGRCCLEMEEALNTVYRQSRVADGSIGPLEIRVVRPGTFEELMDYAISRGASINQYKVPRCVTFPPIVELLDSRVVSSHFSPALPHWTPARRSE",signal of molecular weight corresponding to N-caprinoyl compound,[1]; [5],+
same,signal of molecular weight corresponding to N-caprinoyl compound,[1]; [6],+
same,signal of molecular weight corresponding to N-caprinoyl compound,[1]; [7],+
same,signal of molecular weight corresponding to N-caprinoyl compound,[1]; [8],+
same,signal of molecular weight corresponding to N-caprinoyl compound,[1]; [9],+
same,signal of molecular weight corresponding to N-caprinoyl compound,[1]; [10],+
same,signal of molecular weight corresponding to N-caprinoyl compound,[1]; [11],+
same,signal of molecular weight corresponding to N-caprinoyl compound,[1]; [12],+
same,signal of molecular weight corresponding to N-caprinoyl compound,[1]; [13],+
same,signal of molecular weight corresponding to N-caprinoyl compound,[1]; [14],+
same,signal of molecular weight corresponding to N-caprinoyl compound,[1]; [15],+
same,signal of molecular weight corresponding to N-lauroyl amino acid,[2]; [16],+
same,signal of molecular weight corresponding to N-lauroyl amino acid,[2]; [17],+
same,signal of molecular weight corresponding to N-lauroyl amino acid,[2]; [18],+
same,signal of molecular weight corresponding to N-lauroyl amino acid,[2]; [19],+
same,signal of molecular weight corresponding to N-lauroyl amino acid,[2]; [20],+
same,signal of molecular weight corresponding to N-lauroyl amino acid,[2]; [21],+
same,signal of molecular weight corresponding to N-lauroyl amino acid,[2]; [22],+
same,signal of molecular weight corresponding to N-lauroyl amino acid,[2]; [23],+
same,Nα-caprinoyl-L-aspartic acid detected,[3],4.6 mM
same,Nα-capryloyl-L-aspartic acid detected,[3],4.3 mM
same,Nα-lauroyl-L-aspartic acid detected,[3],3.5 mM
same,signal of molecular weight corresponding to N-acylamino acid,[4]; [24],+
same,signal of molecular weight corresponding to N-acylamino acid,[4]; [25],+
same,signal of molecular weight corresponding to N-acylamino acid,[4]; [26],+
same,signal of molecular weight corresponding to N-acylamino acid,[4]; [27],+
same,signal of molecular weight corresponding to N-acylamino acid,[4]; [28],−
same,signal of molecular weight corresponding to N-acylamino acid,[4]; [29],+
same,signal of molecular weight corresponding to N-acylamino acid,[4]; [30],+
"AtGH3-5: indole-3-acetic acid-amido synthetase GH3.5 from Arabidopsis thaliana, His-tagged (protein, listed as Arabidopsis thaliana, His-tag, indole-3-acetic acid-amido synthetase GH3.5 from Arabidopsis thaliana, His-tagged) MPEAPKKESLEVFDLTLDQKNKQKLQLIEELTSNADQVQRQVLEEILTRNADVEYLRRHDLNGRTDRETFKNIMPVITYEDIEPEINRIANGDKSPILSSKPISEFLTSSGTSGGERKLMPTIEEELDRRSLLYSLLMPVMSQFVPGLENGKGMYFLFIKSESKTPGGLPARPVLTSYYKSSHFKERPYDPYTNYTSPNETILCSDSYQSMYSQMLCGLCQHQEVLRVGAVFASGFIRAIKFLEKHWIELVRDIRTGTLSSLITDPSVREAVAKILKPSPKLADFVEFECKKSSWQGIITRLWPNTKYVDVIVTGTMSQYIPTLDYYSNGLPLVCTMYASSECYFGVNLRPLCKPSEVSYTLIPSMAYFEFLPVHRNNGVTNSINLPKALTEKEQQELVDLVDVKLGQEYELVVTTYAGLCRYRVGDLLRVTGFKNKAPQFSFICRKNVVLSIDSDKTDEVELQNAVKNAVTHLVPFDASLSEYTSYADTSSIPGHYVLFWELCLDGNTPIPPSVFEDCCLAVEESFNTVYRQGRVSDKSIGPLEIKIVEPGTFDKLMDYAISLGASINQYKTPRCVKFAPIIELLNSRVVDSYFSPKCPKWVPGHKQWGSN",signal of molecular weight corresponding to N-caprinoyl compound,[1]; [5],+
same,signal of molecular weight corresponding to N-caprinoyl compound,[1]; [6],+
same,signal of molecular weight corresponding to N-caprinoyl compound,[1]; [7],+
same,signal of molecular weight corresponding to N-caprinoyl compound,[1]; [8],+
same,signal of molecular weight corresponding to N-caprinoyl compound,[1]; [9],+
same,signal of molecular weight corresponding to N-caprinoyl compound,[1]; [10],+
same,signal of molecular weight corresponding to N-caprinoyl compound,[1]; [11],+
same,signal of molecular weight corresponding to N-caprinoyl compound,[1]; [12],+
same,signal of molecular weight corresponding to N-caprinoyl compound,[1]; [13],+
same,signal of molecular weight corresponding to N-caprinoyl compound,[1]; [14],+
same,signal of molecular weight corresponding to N-caprinoyl compound,[1]; [15],+
same,signal of molecular weight corresponding to N-lauroyl amino acid,[2]; [16],+
same,signal of molecular weight corresponding to N-lauroyl amino acid,[2]; [17],+
same,signal of molecular weight corresponding to N-lauroyl amino acid,[2]; [18],+
same,signal of molecular weight corresponding to N-lauroyl amino acid,[2]; [19],+
same,signal of molecular weight corresponding to N-lauroyl amino acid,[2]; [20],+
same,signal of molecular weight corresponding to N-lauroyl amino acid,[2]; [21],+
same,signal of molecular weight corresponding to N-lauroyl amino acid,[2]; [22],+
same,signal of molecular weight corresponding to N-lauroyl amino acid,[2]; [23],+
same,Nα-caprinoyl-L-aspartic acid detected,[3],4.6 mM
same,Nα-capryloyl-L-aspartic acid detected,[3],4.1 mM
same,Nα-lauroyl-L-aspartic acid detected,[3],2.5 mM
same,signal of molecular weight corresponding to N-acylamino acid,[4]; [24],+
same,signal of molecular weight corresponding to N-acylamino acid,[4]; [25],+
same,signal of molecular weight corresponding to N-acylamino acid,[4]; [26],+
same,signal of molecular weight corresponding to N-acylamino acid,[4]; [27],+
same,signal of molecular weight corresponding to N-acylamino acid,[4]; [28],−
same,signal of molecular weight corresponding to N-acylamino acid,[4]; [29],+
same,signal of molecular weight corresponding to N-acylamino acid,[4]; [30],+
